Experimental data taken from patent US20180037632A1 (BIONTECH, published 2018).
Positions of bridges follow the written chain, without caps; N, C: chain ends. No end group written: not given here.

Columns and labels:
[1] = biological target: T1, recombinant soluble human Seprase (rhuSeprase) (human, UniProt Q12884 29-760); experiment: SPR (Biacore T100), rhuSeprase immobilised, MC-FA-010 at 37, 111,11, 333,33, 1000 and 3000 nM, global fit; Rmax 316,6 RU; Chi² 9,42 RU²; U-value 1
T1 construct: range 29-760; Secreted from CHO-S cells with a mouse Ig kappa secretion signal (not part of the protein in the assay); also called recombinant human Seprase; soluble fraction of human Seprase
T1 sequence: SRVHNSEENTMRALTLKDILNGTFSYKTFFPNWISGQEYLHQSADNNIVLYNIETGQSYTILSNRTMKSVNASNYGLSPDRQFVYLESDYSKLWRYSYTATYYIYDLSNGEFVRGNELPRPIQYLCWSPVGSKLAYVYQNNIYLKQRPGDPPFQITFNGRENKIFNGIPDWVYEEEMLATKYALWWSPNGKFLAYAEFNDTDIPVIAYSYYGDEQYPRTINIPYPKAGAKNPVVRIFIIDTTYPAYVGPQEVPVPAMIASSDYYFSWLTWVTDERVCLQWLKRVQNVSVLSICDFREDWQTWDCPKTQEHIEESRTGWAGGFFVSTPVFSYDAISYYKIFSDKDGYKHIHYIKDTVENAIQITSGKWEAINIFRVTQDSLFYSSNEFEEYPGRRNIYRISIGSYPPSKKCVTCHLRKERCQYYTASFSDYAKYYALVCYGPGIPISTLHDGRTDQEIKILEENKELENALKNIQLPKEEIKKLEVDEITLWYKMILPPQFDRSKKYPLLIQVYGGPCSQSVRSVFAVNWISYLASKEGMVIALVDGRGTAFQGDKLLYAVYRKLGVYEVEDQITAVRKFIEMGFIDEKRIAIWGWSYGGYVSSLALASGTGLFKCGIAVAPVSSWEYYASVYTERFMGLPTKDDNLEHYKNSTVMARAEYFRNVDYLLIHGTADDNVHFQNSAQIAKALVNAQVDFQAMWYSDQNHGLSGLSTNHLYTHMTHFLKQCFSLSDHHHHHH
Experimental: (§1) To obtain insights of the kinetic binding properties surface plasmon resonance (SPR) analysis was performed on a Biacore T100 device (GE Healthcare). Therefore, rhuSeprase was immobilized onto a CM5 chip via NHS/EDC mediated coupling as described by manufacturer at 10 μl/min for 420 sec. […] Kd values were calculated using the provided software.
(§2) As a next step a more detailed analysis of binding kinetic was performed using surface plasmon resonance technology (SPR). Therefore, recombinant human Seprase was immobilized on a CMS chip (GE Healthcare) with an amino reactive surface. […] Association and dissociation data was fitted and corresponding dissociation constant and kinetic values (Kon, Koff and Kd) was calculated using the provided software of the system (FIGS. 4A and B).

[2] = biological target: T1, recombinant soluble human Seprase …; experiment: SPR (Biacore T100), recombinant human Seprase immobilized, 37-3000 nM MC-FA-010; Seprase on the chip; monovalent MC-FA-010, 37-3000 nM, Biacore T100
Experimental: as §1, §2

[3] = biological target: T1, recombinant soluble human Seprase …; experiment: competition ELISA on coated rhuSeprase: free MC-FA-010 (0.64 to 3167 nM) against 3 nM Trx-MC-FA-010, detected with anti-S-Tag-HRP, OD 450 nm
Experimental: (§3) For protein based ELISA analysis 5 μg of the respective recombinant protein (rhuSeprase; streptavidin: Sigma; DPP-IV: R&D Systems, BSA: Eurobio) were immobilized per well of a MaxiSorp™ plate (Nunc) by overnight incubation in coating buffer at 4° C. After washing thrice with 300 μl PBS-T/well on a Hydrospeed plate washer (Tecan) the wells were blocked with 1×Casein solution (Sigma, diluted in PBS) for 2 h at RT. Subsequently, the wells were washed as indicated above. 100 μl of the respective Trx-miniprotein fusion diluted in PBS-T was then added and incubated for 1 h at 4° C. […] For competition ELISAs a fixed concentration of 3 nM Trx-miniprotein fusion was mixed with varying concentration (0.64-3167 nM) of solitary miniprotein before incubation. Binding of the Trx-fusion was detected after a PBS-T washing procedure using HRP coupled anti S-tag antibody as described above. Apparent Kd was calculated using Sigmaplot 10 and an one site saturation binding model for fitting of the data.
Detection of bound miniprotein was achieved via anti S-Tag-HRP conjugated antibody (S-tag is provided by thioredoxin fusion expression system, FIG. 3A). EC₅₀ values were calculated using the one-site-saturation binding model in Sigma plot 10.

[4] = biological target: T1, recombinant soluble human Seprase …; experiment: SPR (Biacore T-100), rhuSeprase immobilized on CM5, multi cycle kinetics, 1:1 fit
Experimental: (§4) RhuSeprase (20 μg/ml in PBS, 5% mannitol, 5% trehalose) was immobilized on an amino reactive Series S Sensor Chip CM5 (GE Healthcare). For binding analysis of monomeric Microbodies rhuSeprase was loaded to a maximum of 7500 RU, for oligomeric Microbodies to a maximum of 700 RU. Monomeric Microbodies were measured using a multi cycle kinetic method in a concentration range of 3.125 to 1000 nM based on expected dissociation constant. Association step was measured over a time period of 60-90 seconds, dissociation over 420 seconds. Trimeric Mircobodies were measured using a single cycle kinetics method in a concentration range of 0.3125 to 5 nM (association for 90 seconds, dissociation 420 seconds). Binding kinetics and steady state analysis were calculated using a 1:1 binding model (Biacore T-100 Evaluation Software, GE Healthcare).
(§5) The binding kinetics of monomeric and trimeric Seprase-binding Microbodies was determined using surface plasmon resonance spectroscopy on a Biacore T-100 system.

[5] = biological target: T1, recombinant soluble human Seprase …; experiment: SPR (Biacore T-100), rhuSeprase immobilized on CM5, steady state analysis, 1:1 fit
Experimental: as §4, §5

[6] = biological target: T1, recombinant soluble human Seprase …; experiment: SPR (Biacore T-100), rhuSeprase immobilized on CM5, single cycle kinetics, 1:1 fit
Experimental: as §4, §5

[7] = biological target: T2, human Seprase, full length, on cells (human, UniProt Q12884 1-760); experiment: FACS-based competition on CHO-K1-huSeprase cells, competitor Trx-MC-FA-012 detected with anti-H6-PE
T2 construct: whole, on cells; also called CHO-K1-Seprase; CHO-K1-huSeprase
T2 sequence (looked up): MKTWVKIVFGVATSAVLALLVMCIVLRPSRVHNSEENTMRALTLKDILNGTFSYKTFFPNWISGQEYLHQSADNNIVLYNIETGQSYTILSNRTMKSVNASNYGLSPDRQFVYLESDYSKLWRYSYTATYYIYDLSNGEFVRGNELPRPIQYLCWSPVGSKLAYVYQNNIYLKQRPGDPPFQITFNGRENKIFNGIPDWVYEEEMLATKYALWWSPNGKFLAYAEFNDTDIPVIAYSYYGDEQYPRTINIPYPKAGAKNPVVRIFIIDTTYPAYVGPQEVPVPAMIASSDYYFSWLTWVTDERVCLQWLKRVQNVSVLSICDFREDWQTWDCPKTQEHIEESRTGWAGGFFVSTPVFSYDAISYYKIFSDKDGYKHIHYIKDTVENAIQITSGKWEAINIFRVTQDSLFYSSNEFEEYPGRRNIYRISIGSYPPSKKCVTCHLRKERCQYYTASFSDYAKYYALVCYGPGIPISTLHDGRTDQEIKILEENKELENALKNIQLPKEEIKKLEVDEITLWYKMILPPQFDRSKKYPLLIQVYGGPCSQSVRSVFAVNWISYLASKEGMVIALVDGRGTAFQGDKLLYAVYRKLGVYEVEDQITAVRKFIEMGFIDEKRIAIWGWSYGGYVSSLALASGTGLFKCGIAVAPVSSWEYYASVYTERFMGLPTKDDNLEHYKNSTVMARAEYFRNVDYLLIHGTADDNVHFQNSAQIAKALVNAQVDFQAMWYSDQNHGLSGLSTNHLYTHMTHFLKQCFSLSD

[8] = biological target: T1, recombinant soluble human Seprase …; experiment: SPR (Biacore T-100)
Experimental: as §4, §5

[9] = biological target: T1, recombinant soluble human Seprase …; experiment: direct ELISA on coated rhuSeprase; binding relative to the parental Trx-MC-FA-010
Experimental: as §3

[10] = biological target: T1, recombinant soluble human Seprase …; experiment: direct ELISA on coated rhuSeprase, Trx fusion detected with anti-S-tag-HRP; apparent KD from one site saturation fit; Error 64,43; R2 0,9863
Experimental: as §3

[11] = biological target: T1, recombinant soluble human Seprase …; experiment: direct ELISA on coated rhuSeprase, Trx fusion detected with anti-S-tag-HRP; apparent KD from one site saturation fit; Error 3,63; R2 0,9974
Experimental: as §3

[12] = biological target: T1, recombinant soluble human Seprase …; experiment: direct ELISA on coated rhuSeprase, Trx fusion detected with anti-S-tag-HRP; apparent KD from one site saturation fit; Error 7,6; R2 0,9962
Experimental: as §3

B1: MC-FA-010 (designed binder)
chain: GKCPYSNWTPGRGPDCRRDSDCPGRCICRGNGYCG
modifications: disulfide (positions not given here)
notes: also called soluble monovalent MC-FA-010; solitary MC-FA-010 miniprotein
Work on B1 yielded a Kd [1] of 562 nM, a koff [1] of 0.151 s⁻¹ and a kon [1] of 268000 M⁻¹ s⁻¹. The Kd [2] was ~560 nM, the IC50 [3] was ~20 nM and the Kd [4] was 149 nM. It also gave a koff [4] of 0.201 s⁻¹, a kon [4] of 1.53e+06 M⁻¹ s⁻¹ and a Kd [5] of 106 nM.

B2: DOTA-(MC-FA-012)3 (designed binder)
chain 1: GACPYSNWTPGRGPDCRRDSDCPGRCICRGNGYCG
chain 2: GACPYSNWTPGRGPDCRRDSDCPGRCICRGNGYCG
chain 3: GACPYSNWTPGRGPDCRRDSDCPGRCICRGNGYCG
modifications: each of chains 1-3: N-terminal aminooxy group oxime-ligated to an oxidised serine of the anchor; three disulfides (cystine knot) per chain; anchor carries an N-terminal DOTA chelator
notes: Purchased from Pepscan; about 13000 Da; also called DOTA conjugated trimerized MC-FA-012; MC-FA-012 trimer; not shown: the anchor scaffold (N-terminal DOTA, three Lys-Ser units separated by GSGS linkers)
In the case of B2, the Kd [6] is reported as 0.0124 nM, the kon [6] is reported as 2.11e+07 M⁻¹ s⁻¹ and the IC50 [7] is reported as 43.3 nM. The “times slower offrate compared to MC-FA-012” value [8] was ~530 fold and the Kd [5] was 0.249 nM.

B3: Trx-MC-FA-0112 (designed binder)
chain: GKCPYSNWTPGRAPDCRRDSDCPGRCICRGNGYCG
modifications: disulfide 16-28, 22-34, 3-26; also: N-terminal Trx-His6-S-tag fusion carrier, not in chain
notes: the position follows from the order of the rows; also called alanine scan variant G13A of MC-FA-010, Trx fusion; not shown: Thioredoxin-A, His-tag (H6), S-tag and linker of the pET-32-LibEx fusion, N-terminal of the miniprotein
B3 was tested, and the “Relative Bindung im Vergleich zu Trx-MC-FA-010 [%]” value [9] was 6.98% and the Kd [10] was 217 nM.

B4: Trx-MC-FA-018 (designed binder)
chain: GKCPYSNWAPGRGPDCRRDSDCPGRCICRGNGYCG
modifications: disulfide 16-28, 22-34, 3-26; also: N-terminal Trx-His6-S-tag fusion carrier, not in chain
notes: the position follows from the order of the rows; also called alanine scan variant T9A of MC-FA-010, Trx fusion; not shown: thioredoxin-A, His6 tag, S-tag and linkers of the pET-32-LibEx fusion (N-terminal carrier)
For B4, the “Relative Bindung im Vergleich zu Trx-MC-FA-010 [%]” value [9] was 29.9% and the Kd [11] was 50.6 nM.

B5: Trx-MC-FA-019 (designed binder)
chain: GKCPYSNWTAGRGPDCRRDSDCPGRCICRGNGYCG
modifications: disulfide 16-28, 22-34, 3-26; also: N-terminal Trx-His6-S-tag fusion carrier, not in chain
notes: the position follows from the order of the rows; also called alanine scan variant P10A of MC-FA-010, Trx fusion; not shown: thioredoxin-A, His6 tag, S-tag and linkers of the pET-32-LibEx fusion (N-terminal carrier)
In the case of B5, the “Relative Bindung im Vergleich zu Trx-MC-FA-010 [%]” value [9] is reported as 19.3% and the Kd [12] is reported as 78.7 nM.
